In US20170015742A1 (published 2017):
Values belong to the binder of their own block, whether it stands above or below them.

Tests used:
[1] = biological target: T1, recombinant human PDGF-BB (human, UniProt P01127 82-190); assay: competition ELISA: blocks hPDGF-BB-biotin binding to coated hPDGF-Rβ-Fc
T1 construct: also called hPDGF-BB; huPDGF-BB
Experimental: Plates were then washed four times with wash buffer (TBS, 0.05% Tween-20) and blocked with Superblock blocking buffer (Thermo Scientific, cat#37535). During the blocking step, supernatants, antibodies, benchmark compounds or DVD-Ig were diluted in assay diluent (10% Superblock containing 0.05% surfactamps) and an eight point titration of each sample molecule was performed. […] Following incubation, plates were washed four times with wash buffer. Detection reagent Streptavidin-polyHRP-40 (Fitzgerald, cat#65r-s104phrp) was diluted in assay diluent and added to plates (50 μL) for 45 minutes at 25° C. with shaking. Plates were washed four times with wash buffer and developed with the addition of Enhanced K-blue TMB substrate (Neogen, cat#308177). The reaction was stopped with 2N sulfuric acid (VWR, cat# BDH3500-1) and the absorbance was read at 450 nm-570 nm. […] Data was analyzed using Softmax Pro 4.8 software and IC₅₀ values calculated using a sigmoidal dose response (variable slope) fit in GraphPad Prism 5.

[2] = biological target: T2, recombinant human VEGF165 (human, UniProt P15692 207-395); assay: competition ELISA: blocks biotinylated hVEGF165 binding to coated hVEGF-R2-Fc
T2 construct: also called hVEGF165; huVEGF-A165
T2 sequence (P15692 other isoform, or with tags, fused parts or gaps limits assumed): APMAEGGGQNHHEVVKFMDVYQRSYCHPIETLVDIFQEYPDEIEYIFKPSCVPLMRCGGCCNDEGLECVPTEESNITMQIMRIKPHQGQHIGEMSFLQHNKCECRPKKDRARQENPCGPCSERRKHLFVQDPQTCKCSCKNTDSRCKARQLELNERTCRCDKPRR
Experimental: To identify molecules that could block the binding of hVEGF₁₆₅ to the hVEGF-R2 (KDR/Flk-1) receptor, a competition ELISA was performed. […] Plates were then washed four times with wash buffer (TBS, 0.05% Tween-20) and blocked with Superblock blocking buffer (Thermo Scientific, cat#37535). […] The pre-incubated sample/hVEGF₁₆₅ complex was added to the coated plate at 50 μL in duplicate and incubated for 30 minutes at 25° C. with shaking. Following incubation, plates were washed four times with wash buffer. Streptavidin-polyHRP-40 (Fitzgerald cal#65r-s104phrp) was diluted in assay diluent (10% Superblock containing 0.05% surfactamps) and added to plates (50 μL) for 45 minutes at 25° C. with shaking. Plates were washed four times with wash buffer and developed with the addition of Enhanced K-blue TMB substrate (Neogen cat#308177). The reaction was stopped with 2N sulfuric acid (VWR, cat# BDH3500-1) and the absorbance was read at 450 nm-570 nm. A decrease in observed optical density indicates the test molecule is blocking the hVEGF₁₆₅ binding to the hVEGF-R2-Fc. Data was analyzed using Softmax Pro 4.8 software and IC₅₀ values calculated using a sigmoidal dose response (variable slope) fit in GraphPad Prism 5.

Recombinant rat FcRn = biological target: T3, Recombinant rat FcRn (rat, UniProt P13599 23-298, limits assumed); assay: Biacore SPR; DVD-Ig immobilised by amine coupling, recombinant FcRn injected; 1:1 binding fit
T3 construct: FcRn is normally a heterodimer with beta-2-microglobulin
T3 sequence (looked up) 1: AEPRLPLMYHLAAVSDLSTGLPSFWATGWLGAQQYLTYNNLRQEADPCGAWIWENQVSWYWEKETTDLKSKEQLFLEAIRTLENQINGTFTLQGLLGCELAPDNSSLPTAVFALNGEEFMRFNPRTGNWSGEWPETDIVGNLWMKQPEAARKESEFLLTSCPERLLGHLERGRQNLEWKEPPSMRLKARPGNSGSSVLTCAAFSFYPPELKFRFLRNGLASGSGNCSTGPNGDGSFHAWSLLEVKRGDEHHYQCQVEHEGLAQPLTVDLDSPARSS
T3 sequence (looked up) 2: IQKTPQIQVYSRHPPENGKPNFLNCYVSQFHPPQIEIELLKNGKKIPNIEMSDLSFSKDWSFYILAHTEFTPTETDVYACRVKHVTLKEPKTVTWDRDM
Experimental: Human, cynomolgus, mouse, rat and rabbit recombinant FcRns were injected over all the flow cells at a flow rate of 50 μL/minute for 1 minute at a concentrations range of from 2.7 to 6000 nM (three fold serial dilution), followed by a 2 minute dissociation time. The surfaces were regenerated with an injection of 10 mM HCl at 100 μL/minute for 2 seconds followed by an injection of HBS-EP+, pH 7.4, at a flow rate of 50 μL/minute for 30 seconds over all four flow cells. Samples were prepared and run in two running buffer systems, pH 6.0 MES-EP+, and pH […]. Recombinant human FcγRIIIa V158 and rat and mouse FcRn data were fitted to 1:1 kinetic model. Recombinant human FcγRIIa R131 and FcγRIIa H131, FcγRIIIa F158, and recombinant human, cynomolgus and rabbit FcRn binding data were fitted to a steady state affinity model. Biacore T200 Evaluation Software version 2.0 was used to fit all the data.

[3] = biological target: T4, Recombinant human FcγRIIIa V158, 6xHis-tagged (human, UniProt P08637 17-208, limits assumed); assay: Biacore SPR; His-tagged huFcγRIIIa 158V captured on anti-6xHis antibody, DVD-Ig injected; steady state fit
T4 construct: Captured through its 6xHis tag; also called huFcRIIIa 158V
T4 sequence (P08637 other isoform, or with tags, fused parts or gaps limits assumed): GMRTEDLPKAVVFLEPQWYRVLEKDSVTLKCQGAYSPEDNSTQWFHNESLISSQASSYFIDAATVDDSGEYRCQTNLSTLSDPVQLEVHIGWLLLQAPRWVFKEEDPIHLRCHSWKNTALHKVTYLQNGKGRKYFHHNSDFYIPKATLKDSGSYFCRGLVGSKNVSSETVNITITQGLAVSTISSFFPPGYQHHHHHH
Experimental: (§1) A CM5 chip (GE Healthcare, Pittsburgh, Pa.) with mouse anti-6×His antibodies (“6×His” disclosed as SEQ ID NO: 405) that were directly immobilized on the chip via amine coupling according to the GE Healthcare protocol to the density of 10000RU (all flow cells) was used for experiments. Human FcγRs were captured on flow cells 2, 3 and 4. Flow cell 1 was used as a reference surface. HBS-EP+ was used as the running buffer. […] The chip surfaces were regenerated with an injection of 10 mM glycine pH 1.5 at a flow rate of 100 μL/minute over all four flow cells after each cycle.
The binding of DVD-Ig molecules to FcRn from various species and the binding of DVD-Ig molecules to various FcγRs were characterized by Biacore using the method described in Example 1.2.

[4] = biological target: T5, Recombinant human FcγRIIb, 6xHis-tagged (human, UniProt P31994 46-217, limits assumed); assay: Biacore SPR; His-tagged human FcγR captured on anti-6xHis antibody, DVD-Ig injected
T5 construct: Captured through its 6xHis tag; also called huFcRIIb
T5 sequence: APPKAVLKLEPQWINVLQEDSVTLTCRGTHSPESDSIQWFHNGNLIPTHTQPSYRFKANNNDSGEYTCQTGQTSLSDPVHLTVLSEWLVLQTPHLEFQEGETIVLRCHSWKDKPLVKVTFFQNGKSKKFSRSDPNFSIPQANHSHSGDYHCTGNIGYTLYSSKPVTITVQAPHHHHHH
Experimental: as §1

[5] = biological target: T6, Recombinant human FcγRIIa H131, 6xHis-tagged (human, UniProt P12318 36-218, limits assumed); assay: as above
T6 construct: Captured through its 6xHis tag
T6 sequence: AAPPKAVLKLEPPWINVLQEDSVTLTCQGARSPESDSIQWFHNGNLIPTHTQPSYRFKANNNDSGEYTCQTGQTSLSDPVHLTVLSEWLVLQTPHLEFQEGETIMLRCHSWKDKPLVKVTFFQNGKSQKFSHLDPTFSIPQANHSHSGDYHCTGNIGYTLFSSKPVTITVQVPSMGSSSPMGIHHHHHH
Experimental: as §1

[6] = biological target: T7, Recombinant human FcγRIIa R131, 6xHis-tagged (human, UniProt P12318 36-218, limits assumed); assay: as above
T7 construct: Captured through its 6xHis tag
T7 sequence: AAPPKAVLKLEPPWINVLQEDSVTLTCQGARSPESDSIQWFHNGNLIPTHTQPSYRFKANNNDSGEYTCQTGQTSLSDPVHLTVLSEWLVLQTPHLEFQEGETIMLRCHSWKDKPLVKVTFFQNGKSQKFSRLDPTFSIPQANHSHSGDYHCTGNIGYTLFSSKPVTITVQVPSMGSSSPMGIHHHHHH
Experimental: as §1

[7] = biological target: T8, Recombinant human FcγRIIIa F158, 6xHis-tagged (human, UniProt P08637 17-208, limits assumed); assay: as above
T8 construct: Captured through its 6xHis tag
T8 sequence (P08637 other isoform, or with tags, fused parts or gaps limits assumed): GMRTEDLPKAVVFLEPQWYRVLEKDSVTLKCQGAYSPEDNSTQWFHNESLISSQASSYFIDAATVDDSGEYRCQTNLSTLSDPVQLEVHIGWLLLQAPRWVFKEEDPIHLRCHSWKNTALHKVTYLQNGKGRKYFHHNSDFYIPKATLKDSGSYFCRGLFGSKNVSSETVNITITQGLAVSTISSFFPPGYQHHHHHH
Experimental: as §1

Human VEGF-A 165 = Human VEGF-A 165 (human, UniProt P15692 207-395); assay: cell-based or functional assay
Chain of Human VEGF-A 165 (P15692 other isoform, or with tags, fused parts or gaps): as the sequence (P15692 other isoform, or with tags, fused parts or gaps limits assumed) above

T1 sequence (P01127 82-190 limits assumed): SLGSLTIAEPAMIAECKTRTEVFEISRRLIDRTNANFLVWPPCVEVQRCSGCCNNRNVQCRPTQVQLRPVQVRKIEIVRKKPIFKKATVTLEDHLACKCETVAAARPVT

- IC50 [1]: > 5 nM
- IC50 [2]: 0.131 nM
B1: hVEGF 4G8.3-LS-hPDGF 9E8.4 [hu IgG1/k] mut(234, 235) H435A (bispecific antibody)
heavy: EVQLVQSGSELKKPGASVKVSCKASGYTFTNYGMYWVRQAPGQGLEWMGWINTETGKPTYADDFKGRFVFSLDTSVSTAYLQISSLKAEDTAVYYCARTNYYYRSYIFYFDYWGQGTMVTVSSASTKGPSVFPLAPEVTLRESGPALVKPTQTLTLTCTFSGFSLSTYGMGVGWIRQPPGKALEWLANIWWDDDKYYNPSLKNRLTISKDTSKNQVVLTMTNMDPVDTATYYCARIESIGTTYSFDYWGQGTMVTVSSASTKGPSVFPLAPSSKSTSGGTAALGCLVKDYFPEPVTVSWNSGALTSGVHTFPAVLQSSGLYSLSSVVTVPSSSLGTQTYICNVNHKPSNTKVDKKVEPKSCDKTHTCPPCPAPEAAGGPSVFLFPPKPKDTLMISRTPEVTCVVVDVSHEDPEVKFNWYVDGVEVHNAKTKPREEQYNSTYRVVSVLTVLHQDWLNGKEYKCKVSNKALPAPIEKTISKAKGQPREPQVYTLPPSREEMTKNQVSLTCLVKGFYPSDIAVEWESNGQPENNYKTTPPVLDSDGSFFLYSKLTVDKSRWQQGNVFSCSVMHEALHNAYTQKSLSLSPGK
light: DTVLTQSPATLSLSPGERATLSCRASESVSTHMHWYQQKPGQAPRLLIYGASNLESGVPARFSGSGSGTDFTLTISSLEPEDFAVYFCQQSWNDPFTFGQGTKLEIKRTVAAPEFVLTQSPGTLSLSPGERATLSCERSSGDIGDSYVSWYQQKPGQAPRLVIYADDQRPSGIPDRFSGSGSGTDFTLTISRLEPEDFAVYYCQSYDINIDIVFGGGTKVEIKGTVAAPSVFIFPPSDEQLKSGTASVVCLLNNFYPREAKVQWKVDNALQSGNSQESVTEQDSKDSTYSLSSTLTLSKADYEKHKVYACEVTHQGLSSPVTKSFNRGEC
notes: DVD-Ig, outer hBDB-4G8.3, inner hBDI-9E8.4, HG-long/LK-short; also called PR-1575573; 4G8.3-LS-9E8.4

- binding result (Recombinant rat FcRn): no binding (tested: FcRn 2.7 to 6000 nM)
- Kd [3]: 12000 nM
B2: 4G8.3-SL-9E8.4 (PR-1569579), anti-VEGF-A/anti-PDGF-BB DVD-Ig, hu IgG1/k mut(234,235) H435A (bispecific antibody)
heavy: EVQLVQSGSELKKPGASVKVSCKASGYTFTNYGMYWVRQAPGQGLEWMGWINTETGKPTYADDFKGRFVFSLDTSVSTAYLQISSLKAEDTAVYYCARTNYYYRSYIFYFDYWGQGTMVTVSSASTKGPEVTLRESGPALVKPTQTLTLTCTFSGFSLSTYGMGVGWIRQPPGKALEWLANIWWDDDKYYNPSLKNRLTISKDTSKNQVVLTMTNMDPVDTATYYCARIESIGTTYSFDYWGQGTMVTVSSASTKGPSVFPLAPSSKSTSGGTAALGCLVKDYFPEPVTVSWNSGALTSGVHTFPAVLQSSGLYSLSSVVTVPSSSLGTQTYICNVNHKPSNTKVDKKVEPKSCDKTHTCPPCPAPEAAGGPSVFLFPPKPKDTLMISRTPEVTCVVVDVSHEDPEVKFNWYVDGVEVHNAKTKPREEQYNSTYRVVSVLTVLHQDWLNGKEYKCKVSNKALPAPIEKTISKAKGQPREPQVYTLPPSREEMTKNQVSLTCLVKGFYPSDIAVEWESNGQPENNYKTTPPVLDSDGSFFLYSKLTVDKSRWQQGNVFSCSVMHEALHNAYTQKSLSLSPGK
light: DTVLTQSPATLSLSPGERATLSCRASESVSTHMHWYQQKPGQAPRLLIYGASNLESGVPARFSGSGSGTDFTLTISSLEPEDFAVYFCQQSWNDPFTFGQGTKLEIKRTVAAPSVFIFPPEFVLTQSPGTLSLSPGERATLSCERSSGDIGDSYVSWYQQKPGQAPRLVIYADDQRPSGIPDRFSGSGSGTDFTLTISRLEPEDFAVYYCQSYDINIDIVFGGGTKVEIKGTVAAPSVFIFPPSDEQLKSGTASVVCLLNNFYPREAKVQWKVDNALQSGNSQESVTEQDSKDSTYSLSSTLTLSKADYEKHKVYACEVTHQGLSSPVTKSFNRGEC
notes: also called hVEGF 4G8.3-SL-hPDGF 9E8.4 [hu IgG1/k] mut(234, 235) H435A
- binding result [4]: no binding (tested: DVD-Ig 31.25 to 4000 nM)
- binding result [5]: no binding (tested: DVD-Ig 31.25 to 4000 nM)
- binding result [6]: no binding (tested: DVD-Ig 31.25 to 4000 nM)
- binding result [7]: no binding (tested: DVD-Ig 31.25 to 4000 nM)

- huVEGF-A165 Neutralization Potency in HMVEC-d cells (Human VEGF-A 165): 2.15 nM
B3: chBEW-9D2 (antibody, human IgG1, kappa, L234A L235A, V domains shown)
VH: QIQLVQSGPELKKPGESVKISCKASGYTFTNYGMYWVKLAPGQGLQYLGWINTETGKPTYADDFKGRFVFFLETSASTAYLQINNLRNEDMATYFCARPSDYYDGFWFAYWGQGTLVTVSS
VL: DTVLTQSPALTVSPGERVSISCRASEWVNSYMHWYQQNPGQQPKLLIYKASNLASGVPARFSGSGSGTDFTLTLDPVEADDTATYFCQQSWNDPLTFGSGTKLEIKR
